Results on 16 molecules are retold here after patent publication US20240240209A1, “SYNTHESIS OF ENANTIOPURE CIS-A-IRONE FROM A RENEWABLE CARBON SOURCE” (Agency for Science, Technology and Research, priority 2021, published 2024).

Sequences and labels used below:
B1: pMT1_E153F: pMT1 with E153F (protein)
chain: MPQEARTPQQQVTADEVGDWYDKFGEVYHLTLGESVHCGLWFPPDAPVPQDMELVTMSSQAQDRYTDYLIETLDPKAGQHLLDIGCGTGRTALKAARQRGIAVTGVAVSKEQIAAANRLAAGHGLTERLTFEVADAMRLPYEDESFDCAWAIFSLCHMDRAKALGEAWRVLKPGGDLLVLESVVTEELTEPETALFETLYAANVPPRLGEFFDIVSGAGFHTLSLKDLSANLAMTMNVFALGVYSRRAEFTERFGAEFVDGLLAGLGSAQETLIRKTRFFMATLRKPAV
B2: pMT1_E153G: pMT1 with E153G (protein)
chain: B1 chain with F153G
B3: pMT1_E153H: pMT1 with E153H (protein)
chain: B1 chain with F153H
B4: pMT1_E153I: pMT1 with E153I (protein)
chain: B1 chain with F153I
B5: pMT1_M236K: pMT1 with M236K (protein)
chain: B1 chain with F153E, M236K
B6: pMT1_M236H: pMT1 with M236H (protein)
chain: B1 chain with F153E, M236H
B7: pMT1_M236I: pMT1 with M236I (protein)
chain: B1 chain with F153E, M236I
B8: pMT1_M236G: pMT1 with M236G (protein)
chain: B1 chain with F153E, M236G
B9: pMT1_R160K: pMT1 with R160K (protein)
chain: B1 chain with F153E, R160K
B10: pMT1_R160I: pMT1 with R160I (protein)
chain: B1 chain with F153E, R160I
B11: pMT1_R160H: pMT1 with R160H (protein)
chain: B1 chain with F153E, R160H
B12: pMT1_R160G (protein)
chain: B1 chain with F153E, R160G
B13: pMT1_Y200K: pMT1 with Y200K (protein)
chain: B1 chain with F153E, Y200K
B14: pMT1_Y200G: pMT1 with Y200G (protein)
chain: B1 chain with F153E, Y200G
B15: pMT1_Y200H: pMT1 with Y200H (protein)
chain: B1 chain with F153E, Y200H
B16: pMT1_Y200I: pMT1 with Y200I (protein)
chain: B1 chain with F153E, Y200I

Changes are numbered by the printed parent chain. In names and notes the source's numbering stands.

The first assay can be described thus: Cell lysate reaction of pMT enzymes with psi-ionone, irones quantified by HS-SPME-GCMS. Type of assay: biochemical. The settings on record: pMT1_E153 mutants; AUC vs non-mutated (=1). How it is done:
Using the structure of pMT1 in complex with the cofactor S-adenosyl-L-homocysteine (SAH) and the substrate teleocidin A1 (PDB id: 5GM2) as a template, pMT1 bound to each of the four isomers of α-irone was modelled with the aim of identifying amino acid residues that could be critical to increase cis-α-irone or decrease trans-α-irone production (FIGS. 2d and 2e). […] Site-directed mutagenesis of the 24 residues was carried out with degenerative primers. Subsequently, the mutants of each site were pooled together, and examined if the activity or product-selectivity of the pooled mutants were increased (FIG. 8). This reduced the number of screening reactions to 24, which is manageable when a high-throughput enzymatic assay is not available. […] One residue was chosen and subjected to site-saturation mutagenesis by using degenerative primers containing NNN or NNK. The plasmid library was then transformed into E. coli BL21 (DE3) cells and plated on agar plate containing autoinduction media^19. […] Subsequently, the colonies were collected and resuspended in phosphate saline buffer. Equal number of cells was taken for lysis and cell lysate reactions were carried out in capped SPME-GC vials at 28° C. for 2 days. HS-SPME-GCMS analysis was used to quantify the amount of irones produced by each pooled-colony reaction. […] 24 residues including the control Gly85 (G85m) were subjected to site-saturation mutagenesis, using pMT1 as the template. […] The amount of cis-α-irone produced was estimated based on the area under the gas chromatogram curve (AUC). The fold change is calculated by comparing the AUC of cis-α-irone produced by the mutant enzyme to that of non-mutated.
For each pMT mutant, it was transformed into BL21 and grown in autoinduction media with 5 mM lactose at 20° C. for 36 hrs. Then, cells were pelleted and concentrated 10 times by adding 1 ml of PBS. The OD600 was measured and 40*600 OD*ul cells were transferred into a new 1.5 ml tube. The cells were spun down and resuspended in 600 μl of lysis buffer (1×DNase buffer, 150 mM NaCl, 0.5% glycerol, 1 mg/ml lysozyme and 20U of DNasel). The cells were incubated for 2 hrs at 20° C. with shaking at 300 rpm. Following that, 2 cycles of freeze-thaw was done to completely lyse the cells. At the end of the 2nd thawing, the cell lysate was used to setup a 1 ml reaction in 2 ml GC vials. The reaction consisted of 50 mM Tris (pH7), 10 mM MgCl2, 60 mM NaCl, 0.2 mM SAM and 10 mg/L of psi-ionone and caryophyllene each. To this, 500 μl of cell lysate was added while the remaining 100 μl was used for SDS-PAGE to analyze the total and soluble protein expression. The reaction was incubated for 2 days at 28° C., 300 rpm prior to extraction of cis-α-irone with 500 μl hexane. From this, 20 μl of organic layer was taken into 180 μl hexane for GCMS analysis.
For the mutant pMT activity screening, the reactants and products were analyzed by head space solid phase microextraction (HS-SPME) coupled with an Agilent 5977B gas chromatography (GC) system equipped with Agilent DB-5 ms column (30 m×250 μm×0.25 μm) and mass spectrometry (MS) with high efficiency source. The reaction mixtures were carried out in SPME vials which were incubated at 60° C. for 20 mins to allow the release of volatile compounds. The absorbent fiber (50/30 μm divinylbenzol/carboxen/polydimethyl-SPME fiber, SUPELCO) was then exposed to the headspace of the vial for 20 mins. The extracted analytes were desorbed at the GC inlet at 250° C. for 1 min and injected into GC with a split ratio of 200:1. The GC oven temperature increased from 50° C. to 140° C. at a rate of 10° C./min and held at 140° C. for 10 min. Subsequently, the temperature was increased to 320° C. at a rate of 60° C./min and held at 320° C. for 2 mins.
For the molecule B1, the “fold change in cis-α-irone produced” value was 0.0. As to B2, the “fold change in cis-α-irone produced” value was 0.0. On to B3, for which the “fold change in cis-α-irone produced” value is on record as 0.0. On to B4, for which the “fold change in cis-α-irone produced” value was found to be 0.0.

The same assay, now with this note: pMT1_M236 mutants; AUC vs non-mutated (=1).
In the case of B5, the “fold change in cis-α-irone produced” value is given as 0.0. Still for that read-out and setting: under B6 stands 2.6.

Take B7: the “fold change in cis-α-irone produced” value was determined as 0.5.

Regarding B8, the “fold change in cis-α-irone produced” value worked out at 0.0.

The assay is the same for the next values; noted with them: pMT1_R160 mutants; AUC vs non-mutated (=1).
Consider B9, for which the “fold change in cis-α-irone produced” value is 0.0. Still for that read-out and setting: under B10 stands 1.5.

For the molecule B11, the “fold change in cis-α-irone produced” value is given as 1.0. On to B12, for which the “fold change in cis-α-irone produced” value is given as 0.0.

The same assay, now with this note: pMT1_Y200 mutants; AUC vs non-mutated (=1).
Consider B13, for which the “fold change in cis-α-irone produced” value was determined as 0.0. The same measure, in the same setting: under B14 stands 0.1. Regarding B15, the “fold change in cis-α-irone produced” value worked out at 0.2. Turning to B16, the “fold change in cis-α-irone produced” value amounted to 2.0.
